Experimental data reported in paper PMC9456320.

The substances below were run against C-terminally mKGC-tagged ORF30 (ORF30-mKGC) (assay: BiFC assay, flow cytometry). Conditions: 293T cells; co-transfected with mCherry transfection control; three independent samples; ASC10mut protein expression was not confirmed by Western blotting; parent: 99.8.

Row | Substance | response
1 | N-terminally mKGN-tagged ORF18 (mKGN-ORF18) WT P156A; R158A; L159A | 14.4%

Same assay, conditions: 293T cells; co-transfected with mCherry transfection control; three independent samples; parent: 99.8

Row | Substance | response
2 | N-terminally mKGN-tagged ORF18 (mKGN-ORF18) WT G195A; L197A | 87.5%
3 | N-terminally mKGN-tagged ORF18 (mKGN-ORF18) WT L151A; G152A; S153A | 72.6%
4 | N-terminally mKGN-tagged ORF18 (mKGN-ORF18) WT G3A | 99.8%
5 | N-terminally mKGN-tagged ORF18 (mKGN-ORF18) WT L24A; L29A | 16.7%
6 | N-terminally mKGN-tagged ORF18 (mKGN-ORF18) WT H41A; L44A | 16.2%
7 | N-terminally mKGN-tagged ORF18 (mKGN-ORF18) WT P14A; G15A; L19A | 14.1%
8 | N-terminally mKGN-tagged ORF18 (mKGN-ORF18) WT F187A; L191A | 32.7%
9 | N-terminally mKGN-tagged ORF18 (mKGN-ORF18) WT E36A; L37A; R38A | 9.76%
10 | N-terminally mKGN-tagged ORF18 (mKGN-ORF18) WT C166A; L167A; W170A; G171A | 14.2%
11 | N-terminally mKGN-tagged ORF18 (mKGN-ORF18) WT L142A; D144A; G145A; N146A | 81.3%
12 | N-terminally mKGN-tagged ORF18 (mKGN-ORF18) WT E176A; V179A; R180A | 75.3%
13 | N-terminally mKGN-tagged ORF18 (mKGN-ORF18) WT N53A; Y55A; L56A | 39.9%

Same assay, conditions: 293T cells; co-transfected with mCherry transfection control; three independent samples; parent: 99.9

Row | Substance | response
14 | N-terminally mKGN-tagged ORF18 (mKGN-ORF18) WT R158A | 87.3%
15 | N-terminally mKGN-tagged ORF18 (mKGN-ORF18) WT H41A | 47.4%
16 | N-terminally mKGN-tagged ORF18 (mKGN-ORF18) WT L24A | 93.4%
17 | N-terminally mKGN-tagged ORF18 (mKGN-ORF18) WT L159A | 99.9%
18 | N-terminally mKGN-tagged ORF18 (mKGN-ORF18) WT L37A | 98.7%
19 | N-terminally mKGN-tagged ORF18 (mKGN-ORF18) WT C166A | 99.6%
20 | N-terminally mKGN-tagged ORF18 (mKGN-ORF18) WT L167A | 96.6%
21 | N-terminally mKGN-tagged ORF18 (mKGN-ORF18) WT G15A | 99.6%
22 | N-terminally mKGN-tagged ORF18 (mKGN-ORF18) WT G171A | 98.6%
23 | N-terminally mKGN-tagged ORF18 (mKGN-ORF18) WT W170A | 25.6%
24 | N-terminally mKGN-tagged ORF18 (mKGN-ORF18) WT E36A | 55.9%
25 | N-terminally mKGN-tagged ORF18 (mKGN-ORF18) WT P14A | 99.9%
26 | N-terminally mKGN-tagged ORF18 (mKGN-ORF18) WT P156A | 99.8%
27 | N-terminally mKGN-tagged ORF18 (mKGN-ORF18) WT L29A | 58.8%
28 | N-terminally mKGN-tagged ORF18 (mKGN-ORF18) WT L19A | 99.1%
29 | N-terminally mKGN-tagged ORF18 (mKGN-ORF18) WT L44A | 94.7%

Each substance was assayed against C-terminally mKGC-tagged ORF30 (ORF30-mKGC) (Kaposi's sarcoma-associated herpesvirus (KSHV; BAC16, strain JSC-1)) (assay: split reporter (BiFC, NanoBiT); split mKusabira-Green (mKGN/mKGC) BiFC in 293T cells, co-transfected by the calcium phosphate method, all combinations of tag type and location; cells fixed two days after transfection, gated by FSC/SSC, ratio of mKG-positive cells by flow cytometry). Conditions: not given.

Row | Substance | mKG-positive cells (%)
30 | N-terminally mKGN-tagged ORF18 (mKGN-ORF18) WT (natural protein) | 70%

Each substance was assayed against p50-mKGC (pCONT-2) (UniProt P19838) (assay: split reporter (BiFC, NanoBiT); split mKusabira-Green BiFC in 293T cells, lipofection of mKGN-ORF18 alanine-scanning mutants with ORF30-mKGC and mCherry as transfection control; mCherry-positive cells gated, % mKG-positive cells by flow cytometry; block mutants under 20% and single mutants under 60% counted as binding-negative). Conditions: not given.
Sequence of UniProt P19838 (P19838 1-433): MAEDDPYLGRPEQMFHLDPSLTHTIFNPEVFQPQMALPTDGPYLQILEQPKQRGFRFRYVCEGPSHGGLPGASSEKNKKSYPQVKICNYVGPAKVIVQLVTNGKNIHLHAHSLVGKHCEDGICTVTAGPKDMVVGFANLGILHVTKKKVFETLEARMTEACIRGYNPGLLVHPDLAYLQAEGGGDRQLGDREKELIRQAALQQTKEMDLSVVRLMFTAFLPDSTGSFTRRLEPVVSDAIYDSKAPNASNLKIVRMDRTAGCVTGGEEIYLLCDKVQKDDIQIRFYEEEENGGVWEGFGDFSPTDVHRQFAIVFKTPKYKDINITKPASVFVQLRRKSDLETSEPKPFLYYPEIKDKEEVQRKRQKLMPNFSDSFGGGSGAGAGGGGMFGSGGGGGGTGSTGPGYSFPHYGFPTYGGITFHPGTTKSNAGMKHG

Row | mKG-positive cells (%) | Substance
31 | > 90% | p65-mKGN (pCONT-1) (from UniProt Q04206 1-551) (natural protein)
